The nanobody polyreactivity screen of Harvey et al. (2022)

Assay: yeast display, Sf9 membrane polyspecificity reagent, FACS + sequencing; frameworks hold sequencing errors
Procedure, shortened: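 Polyreactivity labels are assigned by the sorting gate from which each nanobody was recovered. The gates were low and high (top ~1%), set on anti-HA fluorescence for expression and streptavidin fluorescence for reagent binding. Before sorting, galactose-induced (36–48 hours) yeast display cells were stained for 1 hour at 4 °C with 10% biotinylated, detergent-solubilized Sf9 membrane reagent.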

Question: With “QVQLVESGGGLVQAGGSLRLSCAASGIIFYRNTMGWYRQAPGKERELVASISRGGSTYYADSVKGRFTISRDNAKNTVYLPMNTLKPEDTAVYYCSTSGPQDYSRNFDYWGQGTQVTVSS” as the sequence, how does the “polyreactivity (PSR sort gate)” value read?
Answer: low polyreactivity

Question: For “QVQLLETGGGLVQAGGSLRLSFAASGSIFYRYSMVWYRQAPGKERELVAAISYSGGSTYYADSVKGRFTISRDNAKNTVYLQMNSLKPEDTAVYYCAKDYPPPISDYSRYYGYGYWGQGTQVTVSS”, which “polyreactivity (PSR sort gate)” value is on record?
Answer: low polyreactivity

Question: For “QVQLVESGGGVVQAGGSLRLSCAASGSTFYYNAMGWNRQAPGKERELVARISRSGGSTYADSVKGRFTISRDNAKNTVYLQMNSLKPEDTAVYYCNADAYGTPEFTSYAVRYDYWGQGTQVTVSS”, which “polyreactivity (PSR sort gate)” value is on record?
Answer: low polyreactivity

Question: Which “polyreactivity (PSR sort gate)” value does the source give for “QVQLVESWGGLVQAGGSLRLSCAASGNLFADYAMGWYRQAPGTERELVAAISRGGITSYADSVKGRFTISRDNAKNTVYLQMNSLKPEDTAVYYCATDRYDVYDSLGFGYWGQGSQVTVSS” here?
Answer: low polyreactivity

Question: For “QVQLVESGGGLVQAGGSLRLSCAASGIIFCDNAMGWYRHAPGKERELVAAITIGGTSTYYADSVKGRFTISRDNAKNTVYLQMNSLKPEDTAVYYCAKTILYDCDYWGQGTQVTVSS”, which “polyreactivity (PSR sort gate)” value is on record?
Answer: low polyreactivity

Question: With “QVQLQEGGGGQVQAGGSLRLSCAASGYITNGDVMGWSRQAPGEERELVASSGLDATTNYADSVKGRFTISRDNAKMTVYLQMNSLKPEDTAVYYCAADVGSGVLCGYWGQGTQMTVSS” as the sequence, how does the “polyreactivity (PSR sort gate)” value read?
Answer: high polyreactivity

Question: For “QVQLVESGGGLVQAGGTLRLSCAASGSIFGNNLMGWYRQAPGKERELVAAISWSGGKNYADSVKGRFTISRDNAKNTVYLEMHCLIPDDSAVYYCAALSVWSYYTYYYWGQGTQVTVSS”, which “polyreactivity (PSR sort gate)” value is on record?
Answer: high polyreactivity

Question: Which “polyreactivity (PSR sort gate)” value does the source give for “QVQLVESGGGLVQAGGSLRLSCAASGSIFARYAMGWYRQAPGKERELVATITRGGSTNYADSVKGRFTISRDNAKNTVYLQMNSLKPEDTAVYYCARTSYGRLDYWGQGTQVTVSS” here?
Answer: low polyreactivity

Question: Which “polyreactivity (PSR sort gate)” value does the source give for “QVQLVESGGGLDQAGGSLRLTCAASGITFTQYAMGWYRQAPGKEREFVAGITFSGSSTYYADSVKGRFTISRDNAKNTVYLQMNSLKPEDTAVYYCAAESWYKYIYGYPRLFDYWGQATQVTVSS” here?
Answer: low polyreactivity

Question: With “QVHLVESGGGLVQAGGSLRLSCAASGDTFVKYAMGWYRQAPGKERELVAAISSGGRTYYADSVKGRFTISRDNAKNTVYLQMNSLKPEDTAVYFCNAVRPYRLASYDYWGQGTQVTVSS” as the sequence, how does the “polyreactivity (PSR sort gate)” value read?
Answer: high polyreactivity

Question: For “QVHLVESGGGLVQAAGSLRLSCAASGRTFNPNAIGWYRQAPGKERELVAVINVGGRTNYADSVKGRFTISRDNAKNTVYLQMNSLKPEDSAVYYCAAISSRNFDYWGQGTQVTVSS”, which “polyreactivity (PSR sort gate)” value is on record?
Answer: high polyreactivity

Question: For “QVQHVESGGGLVQAGGSLRLSCAASGFIFWKNAMGWYSQAPGKERELVAAITVTGASTYYADSVKGRFTISRDNAKNTVYLQMNSLKPEDTAVYYCAAKTLSVGYVDPDYGRDYWGQGTQVTVSS”, which “polyreactivity (PSR sort gate)” value is on record?
Answer: low polyreactivity

Question: For “QFQLVESGGGLVQAGGSLRLSCAASGSIFSVYAMGWYRQAPGKERELVAAITNRGGSTYYADSVKGRFTISRDNAKNTVYLQMNSLKPEDTAVYYCARGPVSYGGLYDYWGQGTQVIVSS”, which “polyreactivity (PSR sort gate)” value is on record?
Answer: low polyreactivity

Question: With “QVQLVESRGGLVQAGGSLRLSCAASGITFDVYDMGWYRQAPGKERELVASINSGGGITYYADSVKGRFTISRDNAKNTVYLQMNSLKPEDTAVFYCADDTWGSSWYDLFRETSDYWGQVTQVTVSS” as the sequence, how does the “polyreactivity (PSR sort gate)” value read?
Answer: low polyreactivity

Question: With “QVQLVESGGGLLQAGGSLSLSCAASGFTFNRNAMGWYRQAPGKERELVAAISWSGGSTYYADSVKGRFTISRDNAKNTVYLQMNSLKPEDTAVYYCAKGYRRVYSMDWGQGTQVTVSS” as the sequence, how does the “polyreactivity (PSR sort gate)” value read?
Answer: low polyreactivity

Question: For “QVQLVESGGGLVQAGGSLRLSCAASGGIFYPYAMGWYRQAPGKERELVASIDVSDGSTYYADSVKGRFTISRDNAKNSVYLQMNSLKPEDTAVYYCAADRYSKAIDFEGDYWGQGTQVTVSS”, which “polyreactivity (PSR sort gate)” value is on record?
Answer: low polyreactivity

Question: For “QVQLVESGGGLVQAGGSLRLSCAASGIIFDGNAMGWYRQAPGKERELVASITSDSSTNYADSEKGRFTISRDNAKNTVYLQMNSLKPADTAVYYCAADHWIAPRRDYWGQGTQVTVSS”, which “polyreactivity (PSR sort gate)” value is on record?
Answer: low polyreactivity

Question: For “QVQLVESGGGLVQAGGSLRLSCAASGIIFWYNAMGWYRQAPWKERELVASISTGGRTYYADSVKGRFTISRDNAKNTVYLQMNSLKPEDTAVYYCAAASRVGFLYYYWGQGTQVTVSS”, which “polyreactivity (PSR sort gate)” value is on record?
Answer: low polyreactivity

Question: Which “polyreactivity (PSR sort gate)” value does the source give for “QVQLVESGGGLVQAGGSLRLSCAASGRTFRYYAMGWYRKAPGKERELVASIRGGGGTNYADSVKGRFTISRDNAKNTVYLQMNSLKPEDTAVYFCAASVGYSRVWLDYWGQGTQVTVSS” here?
Answer: high polyreactivity

Question: Which “polyreactivity (PSR sort gate)” value does the source give for “QVQLVESGGGLVQAGGSLRLSCAASGSIFRYNTMGWYRPAPGKERELVATITRRGGSTYYADSVKGRFTISRDNAKNTVYLQMNSLKPEDTAVYYCIADNFGGPYNYWGQGTQVTVSS” here?
Answer: low polyreactivity

Question: With “QVQLVESGGGLVQAGGSLRLSCAASGIIIAWYAMGWYRQAPGKERELVAAITSGGGSTYYADSVKGRFTISRDNAKNTVYLQMNSLKPEDTAVYYCAADYQTIGWGYDYWGQGTQVTVSS” as the sequence, how does the “polyreactivity (PSR sort gate)” value read?
Answer: low polyreactivity

Question: For “QVQLVESGGGLVQAGGSLRLISAASGITFRYYVMGWYRHAPGKERELVASISWGGGSTYYADSVKGRFTISRDNAKNTVYLHMNSLIPEDTAVYYCAAEYWVPAVKFGYEFWGQGSQVTVSS”, which “polyreactivity (PSR sort gate)” value is on record?
Answer: high polyreactivity

Question: For “QVQLVESGGRLVQAGGSLPLSCAASGFIFRYYAMGWYRQAPGKERELVAAIDYSGGSTNYADSVKGRFTISRDNAKNTVYLQMNSLKPEDTAVYYCNAEYTWHRGYDYWGQGTQVTVSS”, which “polyreactivity (PSR sort gate)” value is on record?
Answer: low polyreactivity

Question: Which “polyreactivity (PSR sort gate)” value does the source give for “QVQLVESGGVLVQAGGCLRLSCAASGSIFSVNTMGWYRQAPGKERELVATIRTGDSTNYADSVKGRFTISRDNAKNTVYLQMNSLKPEDTAVYYCAAEWSSLNFEYWGQGSQVTVSS” here?
Answer: low polyreactivity

Question: With “QVQLVESGGGLVQAGGSLRLSCAASGFIFAEYAMGWYRQAPGKERELVAAITSGGSTSYADSVKGRFTISRDNAKNTVYLQMNSLIPEDTAVYYCAATWYYHYNDWKHWYEYGYWGQGTQVTVSS” as the sequence, how does the “polyreactivity (PSR sort gate)” value read?
Answer: low polyreactivity

Question: With “QVQLVESGGGLVQAGGSLRLSCAASGRIFTFYAMGWYRQAPGKARELVASITGGGNTYYADSVKGRFTISRDNAKNTVYLQMNSLKPEDTAVYYCNADEWRWDEIIPYAVDYWGQGTQVTVSS” as the sequence, how does the “polyreactivity (PSR sort gate)” value read?
Answer: low polyreactivity

Question: For “QVQLVESGGGLVQAGGSLRLSCAASGNTFASYVMGWYRQAPGNERELVAAISWSGGSTYYADSVKGRFTISRDNAKNTVYLQMNSLKPEDTAVYYCNAKRNVRYGYWGQGTQVTVSS”, which “polyreactivity (PSR sort gate)” value is on record?
Answer: high polyreactivity

Question: Which “polyreactivity (PSR sort gate)” value does the source give for “QVQLVESGGGLVQAGGSLRLRCAASGSTYVYAIGWYRQAPGKDRELVASISWSDSSTYYADSVKGRFTISRDNAKNTVYLQMNSLKPEETAFYYCNADQGTRDSDYWGQGTQVTVSS” here?
Answer: low polyreactivity

Question: With “QVQLVESGGGLVQAGGSLRLSCAASGFTFYKYVMGWYRQAPGKERELVAAITTSGGSTYFADSVKGRFTISRDNAKNSVYLEMNSLKPEDTAVYYCNARSLHTSEGDYWGQGSQVTVSS” as the sequence, how does the “polyreactivity (PSR sort gate)” value read?
Answer: low polyreactivity

Question: For “QVQLQESGGGLLQAGGCLSCTASGTILVQGDMGWYRHAPGKERELVATINDGASTYYADSVKGRFTISRDKAKNTVYLQKNSLKPDDTAVYYCAVFTDITTYFGYWGQGTQVTVSS”, which “polyreactivity (PSR sort gate)” value is on record?
Answer: low polyreactivity

Question: With “QVQLVESCGGLVQAGGSLRVSCAASGITFDGYAMGSYRQAPGKERELVAAITRRGGNTYYADSVKGRFTISRDNAKNTVHLQLNSQKPEDTAFYYCNAQVVHYRVSSVITYTIYDYSGQGTQVTVSS” as the sequence, how does the “polyreactivity (PSR sort gate)” value read?
Answer: high polyreactivity

Question: For “QVQLVESGGGLVQAGGSLRLSCAASGRIFSRYAMGWYRQAPGKERELDAAINKSGGSTYYADSVKGRFTISRDNAKHTVYLQMNSLKPEDTAVYYCAADGRLRGYGYWGQGTQVTVSS”, which “polyreactivity (PSR sort gate)” value is on record?
Answer: high polyreactivity

Question: With “QVQLVESGGGLVQAGGSLRLSCAASGLIFYRNALGWYRQEPGKERELVATISRRGGRTYYADSVKGRFTISRDNAKNTVYLQMNSLNPEDTAVYYCNADDYSSRGGYDSWGQGTQVTVSS” as the sequence, how does the “polyreactivity (PSR sort gate)” value read?
Answer: high polyreactivity

Question: Which “polyreactivity (PSR sort gate)” value does the source give for “QVQLVESGGGLVQAGGSLRLSCAASGFIYKINAMGWYRQAPGKERELVARITSGGRTNYADSVKGRFTISRDNAKNTVYLQMDSLKPEDTAVYYCAARYLAYGPTGYLYGYNYWGQGTQVTVSS” here?
Answer: high polyreactivity

Question: With “QVQLVESGGGLVQAGGSLRLSCAASGGIFVTYAMGWCRQAPGKERELVAAITSGDSTYYADSVKGRFTISRDNAKNPVYLQMNSLKPEDTAVYYCAVGSTDRVSAQGSYFTYDYWGQGTQVTVSS” as the sequence, how does the “polyreactivity (PSR sort gate)” value read?
Answer: low polyreactivity

Question: Which “polyreactivity (PSR sort gate)” value does the source give for “QVQLVESGGGLVQAGGSLRLSCAASGRIFAYNAMGWYRQAPGKERELVAAISSGGNTYYADSVKGRFTISRDNAKNTVYLQMNSLKPEDTAVYYCNAGVGWHRYYSNYDFWGQGTQVTVSS” here?
Answer: low polyreactivity

Question: For “QVQLVESGGGLVQAGGSLRLSCAASGSIFFDGNAMGWYRQAPGKERELVAAISVSGGSTYYADSVKGRFTISRDNAKNTVYLQMNSLKPEDTAVYYCAKYPSKSFVPGDYWGQGTQVTVSS”, which “polyreactivity (PSR sort gate)” value is on record?
Answer: low polyreactivity

Question: For “QVQLVESGGGLVQAGGSLRLSCAASGRTFYRNAMGWYRQAPGKERELFATINSGGSTHYADSVKGRFTISRDNAKNTVYLQMTSLKPEDNAVYYCAARSQSYRGSLSYYWGQGTQVTVSS”, which “polyreactivity (PSR sort gate)” value is on record?
Answer: high polyreactivity

Question: For “QVQLVESGGGLVQAGGILRLSCAASGFIFTYYAKGWYRQAPGKEMELVAAISWSGGSTYYADSVKGRFTISRDNAKNTVYLLMNSLKPEDTAVYYCAVDLHYSRGPRDAQYRYYYWGHGTQVTVSS”, which “polyreactivity (PSR sort gate)” value is on record?
Answer: high polyreactivity

Question: With “QVQLVESGGGLVQAGGSLRLSCAASGSIFRGYTMGWYRQAPGKERELVAAISWSGGSTYYADSVKGRFTISRDNAKNTVYLQMNSLKPEDTAVYYCAAGDYYHRIFLWYDYWGQGTQVTVSS” as the sequence, how does the “polyreactivity (PSR sort gate)” value read?
Answer: low polyreactivity

Question: With “QVQLVESGGGLVQAGGSLRLSCAASGIIFWFYAMGWYRQAPGKERELVAAISGDGDSTYYADSVKGRFTISRDNAKNTVYLQMNSLKPEDTAVYYCAAEWDPVFATDEDDYWGQGTQVTVSS” as the sequence, how does the “polyreactivity (PSR sort gate)” value read?
Answer: low polyreactivity

Question: With “QVQLVESGGGLVQAGGSLRLSCAASGSIFGIYAMGWYRQAPGKERELVAAISRSGGRTYYADSVKGRFTISRDNAKNTVYLQMNSLKPEDTAVYYCAARPPGGYLYDYWGQGTQVTVSS” as the sequence, how does the “polyreactivity (PSR sort gate)” value read?
Answer: high polyreactivity

Question: With “QVQLVESGGGLVQAGGSLRLSCAASGRTFKKYAMGWYRQAPGKVREFVARITYSAGSTYYADSVKGRFTISRDNAKNTVYLQMNSLKPEDTAVYYCARRYASSGPRWYSRHGEYDYWGQGTQVTVSS” as the sequence, how does the “polyreactivity (PSR sort gate)” value read?
Answer: low polyreactivity
